In the supplement of paper PMC11246515:
± gives the standard deviation of the averaged measurements.

Experiment: total protein half-life in vivo (active degradation + dilution); higher = more stable protein
[1] = E. coli NCM3722 delta-clpP delta-lon delta-hslV, growth: N-lim chemostat, doubling time 6 h
[2] = E. coli NCM3722 delta-clpP, growth: N-lim chemostat, doubling time 6 h
[3] = E. coli NCM3722 delta-hslV, growth: N-lim chemostat, doubling time 6 h
[4] = E. coli NCM3722 delta-lon, growth: N-lim chemostat, doubling time 6 h
[5] = E. coli NCM3722 delta-smpB, growth: N-lim chemostat, doubling time 6 h
[6] = wild type E. coli NCM3722, growth: C-lim chemostat, doubling time 3 h
[7] = wild type E. coli NCM3722, growth: C-lim chemostat, doubling time 6 h
[8] = wild type E. coli NCM3722, growth: C-lim chemostat, doubling time 12 h
[9] = wild type E. coli NCM3722, growth: N-lim chemostat, doubling time 6 h
[10] = wild type E. coli NCM3722, growth: N-lim chemostat, doubling time 12 h
[11] = wild type E. coli NCM3722, growth: P-lim chemostat, doubling time 6 h
[12] = wild type E. coli NCM3722, growth: P-lim chemostat, doubling time 12 h

| Sequence | total protein half-life in vivo [1] [h] | total protein half-life in vivo [2] [h] | total protein half-life in vivo [3] [h] | total protein half-life in vivo [4] [h] | total protein half-life in vivo [5] [h] | total protein half-life in vivo [6] [h] | total protein half-life in vivo [7] [h] | total protein half-life in vivo [8] [h] | total protein half-life in vivo [9] [h] | total protein half-life in vivo [10] [h] | total protein half-life in vivo [11] [h] | total protein half-life in vivo [12] [h] |
| --- | --- | --- | --- | --- | --- | --- | --- | --- | --- | --- | --- | --- |
| MLVSKKPMVLVILDGYGYREEQQDNAIFSAKTPVMDALWANRPHTLIDASGLEVGLPDRQMGNSEVGHVNLGAGRIVYQDLTRLDVEIKDRAFFANPVLTGAVDKAKNAGKAVHIMGLLSAGGVHSHEDHIMAMVELAAERGAEKIYLHAFLDGRDTPPRSAESSLKKFEEKFAALGKGRVASIIGRYYAMDRDNRWDRVEKAYDLLTLAQGEFQADTAVAGLQAAYARDENDEFVKATVIRAEGQPDAAMEDGDALIFMNFRADRAREITRAFVNADFDGFARKKVVNVDFVMLTEYAADIKTAVAYPPASLVNTFGEWMAKNDKTQLRISETEKYAHVTFFFNGGVEESFKGEDRILINSPKVATYDLQPEMSSAELTEKLVAAIKSGKYDTIICNYPNGDMVGHTGVMEAAVKAVEALDHCVEEVAKAVESVGGQLLITADHGNAEQMRDPATGQAHTAHTNLPVPLIYVGDKNVKAVEGGKLSDIAPTMLSLMGMEIPQEMTGKPLFIVE | 5.19 ± 0.06 | 5.05 ± 0.79 | 5.19 ± 0.44 | 4.97 ± 0.22 | 4.458 ± 0.033 | 2.85 ± 0.1 | 5.58 ± 0.34 | 10 ± 1.6 | 4.76 ± 0.1 | 7.769 ± 0.048 | 5.1 ± 0.24 | 10.35 ± 0.034 |
| MLYIFDLGNVIVDIDFNRVLGAWSDLTRIPLASLKKSFHMGEAFHQHERGEISDEAFAEALCHEMALPLSYEQFSHGWQAVFVALRPEVIAIMHKLREQGHRVVVLSNTNRLHTTFWPEEYPEIRDAADHIYLSQDLGMRKPEARIYQHVLQAEGFSPSDTVFFDDNADNIEGANQLGITSILVKDKTTIPDYFAKVLC [P0A8Y3] |  | 5.75 ± 1.6 | 3.94 ± 0.21 | 5 ± 0.69 | 4.212 ± 0.04 | 2.92 ± 0.13 | 6.31 ± 0.65 | 9.46 ± 0.36 | 4.14 ± 0.74 | 6.16 ± 0.12 | 5.18 ± 0.06 | 9.4 ± 0.48 |
| MLYIFRLIITVIYSILVCVFGSIYCLFSPRNPKHVATFGHMFGRLAPLFGLKVECRKPTDAESYGNAIYIANHQNNYDMVTASNIVQPPTVTVGKKSLLWIPFFGQLYWLTGNLLIDRNNRTKAHGTIAEVVNHFKKRRISIWMFPEGTRSRGRGLLPFKTGAFHAAIAAGVPIIPVCVSTTSNKINLNRLHNGLVIVEMLPPIDVSQYGKDQVRELAAHCRSIMEQKIAELDKEVAEREAAGKV | 5.89 | 6.07 ± 0.43 |  |  | 4.95 |  | 6.42 |  | 5.93 ± 0.29 | 12.2 ± 1.3 | 6.42 ± 1.2 | 11.8 ± 0.39 |
| MMDLDNIPDTQTEAEELEEVVMGLIINSGQARSLAYAALKQAKQGDFAAAKAMMDQSRMALNEAHLVQTKLIEGDAGEGKMKVSLVLVHAQDHLMTSMLARELITELIELHEKLKA | 4.73 | 2.85 ± 0.031 |  |  |  | 1.44 | 1.82 ± 0.14 | 2.66 |  |  |  |  |
| MMDNMQTEAQPTRTRILNAAREIFSENGFHSASMKAICKSCAISPGTLYHHFISKEALIQAIILQDQERALARFREPIEGIHFVDYMVESIVSLTHEAFGQRALVVEIMAEGMRNPQVAAMLKNKHMTITEFVAQRMRDAQQKGEISPDINTAMTSRLLLDLTYGVLADIEAEDLAREASFAQGLRAMIGGILTAS [P0ACT6] | 6.37 ± 1.1 | 5.2 ± 0.53 | 4.39 ± 0.71 |  | 5.56 ± 0.51 | 3.36 ± 0.77 | 6.053 ± 0.026 |  | 4.87 ± 0.49 | 9.35 ± 0.28 | 4.64 ± 0.12 | 10.3 ± 0.2 |
| MMEFILSHVEKGVMTLTLNRPERLNSFNDEMHAQLAECLKQVERDDTIRCLLLTGAGRGFCAGQDLNDRNVDPTGPAPDLGMSVERFYNPLVRRLAKLPKPVICAVNGVAAGAGATLALGGDIVIAARSAKFVMAFSKLGLIPDCGGTWLLPRVAGRARAMGLALLGNQLSAEQAHEWGMIWQVVDDETLADTAQQLARHLATQPTFGLGLIKQAINSAETNTLDTQLDLERDYQRLAGRSADYREGVSAFLAKRSPQFTGK | 4.04 |  |  |  |  |  |  |  |  |  |  |  |
| MMELMVVHPHIFWLSLGGLLLAAEMLGGNGYLLWSGVAAVITGLVVWLVPLGWEWQGVMFAILTLLAAWLWWKWLSRRVREQKHSDSHLNQRGQQLIGRRFVLESPLVNGRGHMRVGDSSWPVSASEDLGAGTHVEVIAIEGITLHIRAVSS [P0AAS3] | 6.35 ± 0.63 | 6.38 ± 0.81 | 5.57 ± 0.15 | 5.91 | 6.81 | 2.86 | > 8 | 10.5 ± 1.8 | 6.42 ± 0.38 | 11.1 ± 0.17 | 7.12 | 10.6 ± 0.41 |
